Reference: PMC5531254, “MRE11 stability is regulated by CK2-dependent interaction with R2TP complex” (Oncogene, 2017)
No end group written: not given here.

Tests used:
PIH1D1 (51-180) [1] = target: PIH1D1 (51-180) (UniProt Q9NWS0); test: ITC; ~80 uM protein and ~800 uM peptide; performed in triplicate, means ± standard deviation; ITC as described previously
[2] = target: PIH1D1 N-terminal PIH-N domain fragment (UniProt Q9NWS0); test: ITC; MRE11 peptides with purified PIH1D1 PIH-N domain fragment, performed as described previously
PIH1D1 (51-180) [3] = target: T1, PIH1D1 (51-180) (UniProt Q9NWS0 51-180); test: ITC; ~80 uM protein and ~800 uM peptide; performed in triplicate, means ± standard deviation; ITC as described previously; details: both partners purified
T1 construct: also called PIH1D1 N-terminal PIH-N domain fragment (aa 51-180); PIH-N; source: purified as described previously
T1 sequence (Q9NWS0 51-180): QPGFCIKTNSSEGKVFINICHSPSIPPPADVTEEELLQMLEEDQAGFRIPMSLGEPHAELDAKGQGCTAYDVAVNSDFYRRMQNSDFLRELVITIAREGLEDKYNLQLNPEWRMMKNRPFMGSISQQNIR

Chain of PIH1D1 (51-180) (UniProt Q9NWS0) (Q9NWS0 51-180): as above

Kd (PIH1D1 (51-180) [1]) | stoichiometry N (PIH1D1 (51-180) [1]) | Kd [2] | stoichiometry N (PIH1D1 (51-180) [3]) | Molecule
40.9 µM | 0.8 | – | – | MRE11 pS688/pS689 peptide (ITC)
– | – | 26 µM | – | MRE11 DpSDD motif-containing peptide phosphorylated on serines 558 and 561

Further lines, the molecule ahead of its results:

Molecule | Kd (PIH1D1 (51-180) [1]) | stoichiometry N (PIH1D1 (51-180) [1]) | Kd [2] | stoichiometry N (PIH1D1 (51-180) [3])
MRE11 pS558/pS561 peptide (ITC) | 26.1 µM | 1.1 | – | –
MRE11 third acidic sequence peptide phosphorylated on serines 688 and 689 | – | – | 41 µM | –
YSDLDSDDEFVPY (also: phosphoserine at 491 (TEL2 numbering), position in peptide not given here, N-terminal tyrosine added for concentration determination; not part of TEL2; source: synthetic peptide) [TEL2 pS491 peptide] | – | – | – | 1.3
